Data from the RNAGym collection of RNA variant scans (doi:10.1073/pnas.2313332121).

B1: TPR t1 (parent)
chain: GACCAAUCUGCCCUCAGAGCUCGAGAACAUCUUCGGAUGCAGAGGAGGCAGGCUUCGGUGGCGCGAUAGCGCCAACGUCCUCAACCUCCAAUGCAUCCCACCACAUGAUGAUGCCUGAAGAGCCUUGGUUUUUUG

Variants of: B1
Assay: polymerase ribozyme fitness, log enrichment relative to wild type (log ratio); higher = more active; in vitro selection for triplet polymerase activity
Outline: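 Mutant libraries were PCR-built and transcribed for each subunit of a heterodimeric triplet polymerase ribozyme and selected for one round in triplicate at −7 °C, frozen, before gel excision of extended constructs and streptavidin-bead capture. Input and output libraries were Illumina-sequenced, keeping genotypes with ≥10 input reads and ≥1 read per output. Fitness is a logarithmic ratio of genotype to wild-type enrichment, in base 2, using inverse-variance-weighted replicate averages.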

Point of comparison: GACCAAUCUGCCCUCAGAGCUCGAGAACAUCUUUGGAUGCAGAGGAGGCAGGCUUCGGUGGCGCGAUAGGGUCAACGUCCUCAACCUCCAAUGCAUCCCACCACAUGAUGAUGCCUGAAGAGCCUUGGUUUUUUG [C34U C70G C72U], “polymerase ribozyme fitness (log ratio)” value -7.09. Against it:
- GACCAAUCUGCCCUCAGAGCUCGAGAACAUCUUUGGAUGCAGAGGAGGCAGGCUUCGGUGGCGCGAUAGCGCCAACGUCCUCAUCCUCCAAUGCAUCCCACCACAUGAUGAUGCCUGAAGAGCCUUGGUUGUUUG [C34U A84U U131G] — higher, -5.95
- GACCAAUCUGCCCUCAGAGCUCGAGAACAUCUUUGGAUGCAGAGGAGGCAGGCUUCGGUGGCGCGAUAGCGCCUACGUCCUCAACCUCCAAUGCAUCCCACCACAUGAUGAUGCCUGAAGAGCCUUGGUUUUUUG [C34U A74U] — higher, -4.36
- GACCAAUCUGCCCUCAGAGCUCGAGAACAUCUUUGGAUGCAGAGGAGGCAGGCUUCGGUGGCGCGAUAGCGCCAACGUCCUCAGCCUCGAAUGCAUCCCACCACAUGAUGAUGCCUGAAGAGCCUUGGUUUUUUG [C34U A84G C89G] — higher, -6.47
- GACCAAUCUGCCCUCAGAGCUCGAGAACAUCUUUGGAUGCAGAGGAGGCAGGCUUAGGUGGCGCGAUAGCGCCAACGUCCUCAACCUCCAAUGCAUCCCACCACAUGAUGAUGUCUGAAGAGCCUUGGUUUUUUG [C34U C56A C114U] — higher, -4.57
- GACCAAUCUGCCCUCAGAGCUCGAGAACAUCUUUGGAUGCAGAGGAGGCAGGCUUCGGUGGCGCGAUAGCGCCAACGUCCUCAACCUCCAAUGCAUCCCACCACAUGAUGAUGCUUGAAGAGCCUUGGUUUUUUG [C34U C115U] — higher, -5.45
- GACCAAUCUGCCCUCAGAGCUCGAGAACAUCUUUGGAUGCAGAGGAGGCAGGCUUCGGUGGCGCGAUAGCGGCAACGUCCUCAACCUCCAAUGCAUCCCACCACAUGAUGAUGCCUGAAGAGCCUUGGUUUUUUG [C34U C72G] — higher, -2.99
- GACCAAUCUGCCCUCAGAGCUCGAGAACAUCUUUGGAUGCAGAGGAGGCUGGCUUCGGUGGCGCGAUAGCGCUAACGUCCUCAACCUCCAAUGCAUCCCACCACAUGAUGAUGCAUGAGGAGCCUUGGUUUUUUG [C34U A50U C73U C115A A119G] — higher, -4.5
- GACCAAUCUGCCCUCAGAGCUCGAGAACAUCUUUGGAUGCAGAGGAGGCAGGCUUCGGUGGCGCGAUAGCGCCAACGUCCUCAACCUCCAAUGCAUCCCACUACAUGAUGAUGCCUGAAGAGCAUUGGUUUUUUG [C34U C102U C124A] — higher, -0.815
- GACCAAUCUGCCCUCAGAGCUCGAGAACAUCUUUGGAUGCAGAGGAGUCAGGCUUCGGUGGCGCGAUAGCGCCAACGUCCUCAACCUCCAAUGCAUCCCACCACAUGAUGAUGCCUGAAGAGCCUUGGUUUUUUG [C34U G48U] — higher, -4.63
- GACCAAUCUGCCCUCAGAGCUCGAGAACAUCUUUGGAUGCAGAGGAAGCAGGCUUCGGUGGCGCGAUAGCGUCAACGACCUCAACCUCCAAUGCAUCCCACCACAUGAUGAUGCAUGAAGAGCCUUGGUUUUUUG [C34U G47A C72U U78A C115A] — higher, -6.19
- GACCAAUCUGCCCUCAGAGCUCGAGAACAUCUUUGGAUGCAGAGGAGGGAGGGUUCGGUGGCGCGAUAGCGCCAGCGUCCUCAACCUACAAUGCAUCCCACCAAAUGAUGAAGCCUGAAGAGCCUUGGUUUUUUG [C34U C49G C53G A75G C88A C104A U112A] — higher, -5.7
- GACCAAUCUGCCCUCAGAGCUCGAGAACAUCUUUGGAUGCAGAGGAGGCAGGCUUCGGUGGCGCGAUAGGGCCAACGUCCUCAACCUCCAAUGCAUCCCACCACAUGAUGAUGCCUGAAGAGCCUUGGUUUUUUG [C34U C70G] — higher, -5.34
- GACCAAUCUGCCCUCAGAGCUCGAGAACAUCUUUGGAUGCAGAGGAGGCAGGGUUCGGUGGCGCGUUAGCGCCAACGUCCUCAACCUCCAAUGCAUCCCACCACAUGAUGAUGCCUGAAGAGCAUUGGUUUUUUG [C34U C53G A66U C124A] — higher, -6.48
- GACCAAUCUGCCCUCAGAGCUCGAGAACAUCUUUGGAUGCAGAGGAGGCAGGCUUCGGUGGCGCGAUAGCGUCAACGUCCUCAACCUCCAAUGCAUCCCACCACGUGAUGAUGCCUGAAAAGCCUUGGUUUUUUG [C34U C72U A105G G120A] — higher, -6.01
- GACCAAUCUGCCCUCAGAGCUCGAGAACAUCUUUGGAUGCAGAGGAGGCAGGCUUCGGUGGCGCGAUAGCGACAACGUCCUCAACCUCCAAUGCAUCCCACCACAUGAUGAUGCCUGAAGAGACUUGGUUUUUUG [C34U C72A C123A] — higher, -5.4
- GACCAAUCUGCCCUCAGAGCUCGAGAACAUCUUUGGAUGCAGAGGAGGCAGGCUUCGGUGGUGCGAUAGCGCCAACGUCCUCAACCUCCAAUGCAUCCCACCACAUGAUGAUGCCUGAAGAGCCUUGGUUUUUUG [C34U C62U] — higher, -5.32
- GACCAAUCUGCCCUCAGAGCUCGAGAACAUCUUUGGAUGCAGAGGAGGCAGGCUUCGGUGGCGCGAUAGCGCCAACGUUCUCAACCUCCAAUGCAUCCCACCACAUGAUGAUGCCUGAAGAGCCUUGGUCUUUUG [C34U C79U U130C] — higher, -5.4
- GACCAAUCUGCCCUCAGAGCUCGAGAACAUCUUUGGAUGCAGAGGAGGCAGGCUUCGGUGGCGCGAUAGCGCCAACGUCCUCAACCUCCAAUGCAUCCCACCACAUGAUGAUGCCUGAAGAGUCUUGGUUUUUUG [C34U C123U] — higher, -2.86
- GACCAAUCUGCCCUCAGAGCUCGAGAACAUCUUUGGAUGCAGAGGAGGCAGGCUUAGGUGGCGCGAUAGCCCCAACGUCCUCAACCUCCAAUGCAUCCCACCACAUGAUGAAGCCUGAAGAGCCUUGGUUUUUUG [C34U C56A G71C U112A] — higher, -6.49
- GACCAAUCUGCCCUCAGAGCUCGAGAACAUCUUUGGAUGCAGAGGAGGCAGGCUUCGGUGGCGCGAUAGCGCCAACGUCCUCAACCUUCAAUGCAUCCCACCACAUGAUGAUGCCUGAAGAGCCUUGGUUUUUUG [C34U C88U] — higher, -4.26
